Assay results taken from the supplement of paper PMC10126150.
± gives the standard deviation of the averaged measurements.

Test system: ATP
Assay: switch fluorescence ratio, 500 uM ATP over buffer (Cy3 cluster intensity, sum of 5 cycles each) (fold (ratio)); higher = stronger signal-on switching upon ATP binding; sequences stand for … in TCGTCGGCAGCGTCAGATGTGTATAAGAGACAGTTTTTTTTTTTTTTTTTTTTTTTTT…TC
Conditions: aptamer strand: ATP DNA aptamer (quencher-CACCTGGGGGAGTATTGCGGAGGAAGG + anchor), 100 nM annealed; ATP concentration: 500 uM
In short: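 Switching-strand clusters labelled with Cy3 on a modified Illumina MiSeq flow-cell were annealed to 100 nM quencher-labelled ATP aptamer, imaged in selection buffer, and re-imaged after 15 min with 500 uM ATP at 22 °C. This was done over five cycles with NaOH stripping and re-annealing in between. The fluorescence ratio is summed target-cycle over summed buffer-cycle Cy3 intensity per cluster, averaged per switch-domain sequence, excluding clusters outside 100-1000 RFU.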
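Further: ATP exposure 15 min at 22 °C before imaging.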

Sequence | switch fluorescence ratio
CTGGGAGTGT | 0.9946 ± 0.0092
TTACGTTACG | 1.34 ± 0.047
CTAATATGGG | 1.04 ± 0.021
CCACTATTAG | 1.03 ± 0.021
TTATTAATAC | 1.177 ± 0.0012
GAGAAATTGG | 1 ± 0.022
TTTTGGCGGC | 0.9504 ± 0.0056
AAATATTTCC | 1.09 ± 0.06
TTGAGGCAGG | 1.027 ± 0.0065
AGAAAATTGG | 1.01 ± 0.03
AATGGCGGCC | 1.03 ± 0.039
TGATGTGGGA | 1.027 ± 0.0047
AAAATTGTCT | 0.981 ± 0.023
AGGGCGTCTG | 1.01 ± 0.058
TGTGATGTGG | 1.04 ± 0.083
GTGATTGGGG | 0.97 ± 0.028
CATGCTGGGC | 1.0235 ± 0.00067
GGCTGGCAGT | 0.988 ± 0.015
ACAGTGTGTC | 0.994 ± 0.042
GAGGTTCTAT | 1.0012 ± 0.00094
CCAGGGGGGA | 1.18 ± 0.048
CGGGTGGGGC | 1.02 ± 0.052
CAAAAAGGGA | 1.0178 ± 0.00094
TTTCTAGACC | 1.1 ± 0.12
TTAACTTTCT | 1.058 ± 0.0094

Sequence | switch fluorescence ratio
GAGTTCTTCA | 0.973 ± 0.015
GCAAAAAGGT | 0.996 ± 0.029
CGTCCGGTCG | 1.02 ± 0.064
GAGGTTGTG | 1.01 ± 0.025
CTAAGCCAAT | 1.21 ± 0.023
CATGCTGCGG | 0.999 ± 0.026
TTGTAGTCGG | 1 ± 0.053
GGGGGGTGTT | 1.01 ± 0.019
TTTTTAACGG | 1.01 ± 0.024
GGCATAGAGG | 1.03 ± 0.0032
GGCGGGTATG | 1.0223 ± 0.00097
GCTTGCTCAT | 1.018 ± 0.0094
ACATCCGGAC | 1.343 ± 0.011
GATCGAGACC | 1.024 ± 0.0044
CGTGGTTTGT | 0.9874 ± 0.0051
AAGGCTGTAA | 0.97831 ± 0.0009
GTTTTTAGTG | 0.983 ± 0.038
AGGGGGGAGT | 1.02 ± 0.031
CCAATTTTTA | 1.01 ± 0.03
AGAGTGCCTG | 1.04 ± 0.058
TCAGTTTTAT | 0.9726 ± 0.0074
TAGGATAGAC | 1 ± 0.017
TGGGGGCCAT | 0.999 ± 0.014
CGGGTGGGGG | 1.07 ± 0.036
TTGGAATAGA | 0.999 ± 0.05

Sequence | switch fluorescence ratio
TAACGCTTTT | 1.002 ± 0.0065
TTTTGATGAC | 1.01 ± 0.047
GGTTCGACTG | 0.951 ± 0.046
AAAAAAAGCT | 1.06 ± 0.075
TGACTGGGTA | 1 ± 0.021
GGTTTGCGTG | 0.988 ± 0.0043
CGATTCAACG | 1.02 ± 0.012
TTTATTGCGT | 1.01 ± 0.048
AGTATGGTGT | 0.937 ± 0.044
GGGCACTCGC | 0.999 ± 0.033
TTATCATTTA | 1.01 ± 0.03
CGCCGAAGGG | 0.98523 ± 0.00014
ACCTTAATTA | 1.1 ± 0.044
GGGAAAACTA | 1 ± 0.028
AAAGGGTAAT | 0.984 ± 0.018
GCGTTCAGGC | 0.994 ± 0.063
AAGTGGGGA | 0.986 ± 0.018
GGGTGATGTA | 0.996 ± 0.026
CGACTGTTTT | 1.02 ± 0.015
ATAATATTTT | 1.031 ± 0.0028
AAGGATGGGA | 1 ± 0.023
AGCATGAACT | 1.07 ± 0.044
GGCTACGGAA | 2.32 ± 0.022
TCGGGTTCTC | 0.967 ± 0.0091
GGGGTTCGCG | 1.004 ± 0.0048

Sequence | switch fluorescence ratio
GAGGGTCGGG | 0.988 ± 0.033
ACCAAAAATG | 1.1 ± 0.13
GTTTATTTTT | 0.997 ± 0.023
AGGGCAAAAT | 1.02 ± 0.035
AAAGAGTTGA | 1 ± 0.022
GTTATATTTT | 1.01 ± 0.032
AGGGTTTGTT | 1.02 ± 0.04
ATTTTTTCTG | 0.9907 ± 0.0059
ACTTTGTTGC | 1.01 ± 0.0079
TTTAAATTG | 1 ± 0.05
CTATAACAAT | 1.02 ± 0.021
GGGTTGAACC | 0.994 ± 0.032
ATGAGAATTT | 1.01 ± 0.049
AGGATTCGGC | 1.04 ± 0.059
TTTAAAACTT | 2.03 ± 1.4
GGCCTCTTGG | 1 ± 0.011
TCGTATTTGG | 0.993 ± 0.032
TAACTTTGGC | 0.9536 ± 0.0091
TTGGTAGATT | 0.984 ± 0.047
TGTGATCGAC | 1.01 ± 0.018
CGGGTATTCG | 0.99 ± 0.03
TCGACTATTA | 1.05 ± 0.019
TCTAGCCGCG | 1.016 ± 0.0044
GGAGAAAAGA | 0.9862 ± 0.0076
AAAAGTATAC | 1.06 ± 0.072

Sequence | switch fluorescence ratio
TTCTTTGGAT | 1.03 ± 0.028
GGTCCTAGAA | 0.9724 ± 0.0011
AGGGGCTTGC | 0.956 ± 0.036
GCTTTATTAA | 1 ± 0.017
ATTAGTACTG | 1.02 ± 0.02
GGTTTAGGGC | 0.992 ± 0.066
GTTTAGTTTG | 0.992 ± 0.044
TTACGTAAGG | 1.23 ± 0.051
TCAGGGACAG | 1.02 ± 0.021
AGACGTCGGG | 1.016 ± 0.0031
AAGTCATTTT | 1.026 ± 0.0017
TAATTATAGC | 1.05 ± 0.049
AAACCTCTGG | 0.965 ± 0.02
GCCGGCTTTC | 1.01 ± 0.048
CATTTAATGG | 0.997 ± 0.028
TGACAGCCTT | 1.068 ± 0.0032
ATATAGTGTA | 0.99 ± 0.029
TTTTGTAAGG | 1.011 ± 0.0043
TATTTCCGGG | 1.012 ± 0.0045
TTTGTTACGT | 1.04 ± 0.024
CAGGTTTATA | 0.993 ± 0.022
GAAAAAAGTA | 1.01 ± 0.031
AACGTTGCTT | 1.01 ± 0.013
TGATGGGGCG | 0.982 ± 0.023
AATTTGGCAG | 0.99 ± 0.025

Sequence | switch fluorescence ratio
TGGTTTAGCG | 0.964 ± 0.03
CTTGAGTTAG | 1.015 ± 0.0066
GGGCTGAGGA | 1 ± 0.036
CGGTAAGGCA | 0.99 ± 0.017
GTTATAAGGG | 0.975 ± 0.03
ACGTAATTAA | 1.13 ± 0.026
TTTACTTCTA | 1.05 ± 0.017
GAAATTGATG | 0.983 ± 0.017
GACAGTGGTA | 0.973 ± 0.013
TTAAAGTTGC | 1.02 ± 0.038
GTTTTTTGAT | 1.008 ± 0.0042
AGGCCCACAT | 1.01 ± 0.046
GAAGGGGTGA | 1.03 ± 0.053
ACGTCAGTTG | 0.975 ± 0.012
TAAGGGCAGA | 1.02 ± 0.045
TACCTTGGGC | 1.04 ± 0.046
GGTTAGGAGT | 0.99 ± 0.0081
GGACATTATA | 1.031 ± 0.0056
TGGGTATATT | 0.987 ± 0.011
ACAAGAGGGT | 1.002 ± 0.0051
CACTGCGTCT | 1.07 ± 0.11
TTAGGGGTGC | 1.07 ± 0.037
GGTGGGTGCA | 0.985 ± 0.036
CCGGTGTGTA | 1.03 ± 0.029
GGTCTAGATA | 0.99 ± 0.026

Sequence | switch fluorescence ratio
CCCCTTTATT | 1.01 ± 0.057
TGAAGCATCC | 1.822 ± 0.0073
CGTTGCTTAG | 0.988 ± 0.024
GGAAAGACGA | 1.01 ± 0.016
ATTATGGTCG | 0.999 ± 0.084
CGATGTGCCC | 0.983 ± 0.024
ACGGTGACGG | 1.02 ± 0.04
GCATTTGCTT | 1.01 ± 0.019
TTTTAGATTG | 0.987 ± 0.028
ATGGAGGGAC | 1.48 ± 0.66
ATTGACGGGT | 0.9762 ± 0.0085
TTAACTAGGG | 0.974 ± 0.037
TACACGGGGT | 1.05 ± 0.018
CTAAAGATCG | 1.03 ± 0.049
TGGCTGTTTT | 1.04 ± 0.042
TTTGTCAGGC | 1.02 ± 0.053
AAGGTTATCT | 1.005 ± 0.0068
TTTCAACCTT | 1.42 ± 0.071
ATTAACCAGG | 1.27 ± 0.065
CGCCGTCTCA | 1.02 ± 0.042
GGATGGGGCA | 1 ± 0.023
AGTATGAGTT | 0.9737 ± 0.0017
CAAAGATAGG | 0.996 ± 0.018
CATGGCGAAG | 1 ± 0.034
AATTTTGGAC | 1.01 ± 0.017

Sequence | switch fluorescence ratio
GTTTTGGTTG | 1.01 ± 0.027
ACGACTCCCG | 1.109 ± 0.0044
GTGGTAAAGG | 0.9739 ± 0.0091
GAAGTCCATG | 1.01 ± 0.014
TAGCAATGAA | 1.53 ± 0.057
TCGCGGCGCG | 0.972 ± 0.011
TTCAATTTGG | 1.01 ± 0.021
GCTAATTGGC | 1.04 ± 0.098
AATTTTTGTG | 0.988 ± 0.022
GGCATTTGTA | 1 ± 0.02
GGGTGGGCAG | 1.009 ± 0.0027
GCCAATTATT | 0.991 ± 0.031
GCCTTTGGCA | 0.962 ± 0.013
AAAGCAATGG | 2.51 ± 2
AGTATTTGTG | 0.97 ± 0.035
TAAGAGGCAC | 0.996 ± 0.052
TTCGGGGCAT | 1.05 ± 0.097
TATGTGAACT | 0.9986 ± 0.0019
AAGCCTGGTG | 1.6 ± 0.063
CGTTTGGCGT | 1.12 ± 0.2
GTGTATCCGT | 0.994 ± 0.018
ATAGTGACGT | 0.9826 ± 0.0075
TTGGTCAAGG | 0.995 ± 0.045
ACCCGGCTTA | 1.19 ± 0.22
TTTTTAGAGT | 0.985 ± 0.026
